From patent US20110059092A1 (INNOGENETICS, published 2011) come the findings set out here.

Where a chain is given by its changes, count along the chain named. Ends that are not written are not given here. * marks the point of attachment. Biotin = O=C1N[C@H]2[C@H](CS[C@H]2CCCCC(=O)*)N1

Sequences and labels used below:
T1: Aβ8-15-bio (not fully specified (C-terminus); printed as S8GYEVHHQ15GK-biotin)
T1 construct: Synthetic biotinylated peptide with a free N-terminus at Ser8 of Aβ; also called IGP-2258; Aβ8-15 peptide
T1 peptide: SGYEVHHQGK(Biotin)

T2: Aβ6-13-bio (not fully specified (C-terminus); printed as H6DSGYEVH13GK-biotin)
T2 construct: Synthetic biotinylated peptide, shifted two amino acids N-terminal compared with Aβ8-15; also called Aβ6-13 peptide
T2 peptide: HDSGYEVHGK(Biotin)

B1: TeiA 2b.6 (antibody, IgG2b, V domains shown)
VH: GGLVQPGGSLRLSCATSGFTFTDFYMEWVRQPPGKRLEWIAASRNKANGYTTEYSASVKGRFIVSRDTSQGILYLQMSALRAEDTAIYYCAIYRYYAMDYWGQGTSVTVSS
VL: SSLTVTAGEKVTMSCKSSQSLFNSGRQTNYLTWFQQRPGQAPKLLIYWASTRGSGVPDRFTGSGSGTEFTLTISSVQAEDLAVYYCQNDYTYPLTFGAG
notes: Mouse monoclonal, IgG2b; also called 2.13.E5; 2.13.E5.E4
B2: TeiA 1.1 (antibody, IgG1, V domains shown)
VH: GGLVQPGGSLRLSCATSGFTFSDFFIEWVRQPPGKRLEWITASRNKNYDYKTEYSASVKGRFIVSRDTSQSILYLQMNALRAEDTAIYYCAIYRHYAMDYWGQGTSVTVSS
VL: B1 VL with K16T, R26T, F34Y, R37K, A41P, G53E, E68D
notes: Mouse monoclonal, IgG1; The printed variable regions seem N-terminally incomplete (primer region missing); also called 3.46.B10; 3.46.B10.E7
B3: TeiA 1.7 (antibody, IgG1, V domains shown)
VH: GGLVQPGGSLRLSCATSGFTFSDFYMEWVRQPPGRRLEWIAASRDKAKDYTTEYSASVKGRFIVSRDTSQSIFYLQMNALRSEDTAIYYCATYFSYAMDYWGLGTSVTVSS
VL: SSLTVTAGEKVTMNCKSSQNLLNSGNQVNYLTWFQQKPGQPPKLLIYWASTRESGVPDRFIGSGSGTDFTLTINSVQAEDLAVYYCQNDYRYPLTFGAG
notes: Mouse monoclonal, IgG1; The printed variable regions seem N-terminally incomplete (primer region missing); also called 2.8.A3; 2.8.A3.F8

The first test has as its target T1, Aβ8-15-bio. Description: Luminex: biotinylated peptide on avidin beads, anti-mouse phycoerythrin detection. An excerpt:
(§1) To determine the specificity of the antibody a peptide was used which is shifted two amino-acids N-terminal as compared to the Aβ₈₋₁₅, the Aβ₆₋₁₃ peptide. The biotinylated versions of these peptides are used in order to capture it efficiently to avidin Luminex beads. […] The results presented in Table 3 are raw data expressed as Mean Fluorescence Intensity (MFI).
For the molecule B1, the “Luminex assay (MFI)” value came to 1690 MFI.

For B2, the “Luminex assay (MFI)” value worked out at 1820 MFI.

With B3, the “Luminex assay (MFI)” value was 1720 MFI.

For a further test, the target named is T2, Aβ6-13-bio. The test is described as above.
Text: as §1
For the molecule B1, the “Luminex assay (MFI)” value worked out at 51 MFI.

B2: the “Luminex assay (MFI)” value amounted to 24 MFI.

For the molecule B3, the “Luminex assay (MFI)” value was determined as 5 MFI.

For the next test, the target named is T1, Aβ8-15-bio. Description: bridging assay: BSA-coupled Aβ8-15 peptide (PG127) captures one binding site, biotinylated peptide detects. The protocol: Spleen of both mice were prepared and fused to SP2/0 cells. After plating, 66 plates (±3000 clones) were screened. […] In the bridging assay, BSA coupled peptide IGP-128, PG127 (see Table 3) was used to capture one binding site of the antibody and a biotinylated peptide was used to detect the captured antibody in a so-called bridging assay. This assay gives an indication on the affinity of the antibody: a high-affinity antibody will give a higher signal than a lower affinity antibody. Indeed ‘two classes’ of antibodies have been identified.
For B1, the “Bridging assay (OD450)” value is 4 OD450.

As for B2, the “Bridging assay (OD450)” value is 3.76 OD450.

For the molecule B3, the “Bridging assay (OD450)” value worked out at 0.222 OD450.
